# Measurements: patent publication CN113512118A
# Molecular target: sCD146蛋白 (CD146胞外区蛋白, Sino Biological 10115-H08H-20) (human) (UniProt P43121)
# Assay: BLI (Octet Red96), against parental AA98
# Sequence of UniProt P43121 (P43121 24-559): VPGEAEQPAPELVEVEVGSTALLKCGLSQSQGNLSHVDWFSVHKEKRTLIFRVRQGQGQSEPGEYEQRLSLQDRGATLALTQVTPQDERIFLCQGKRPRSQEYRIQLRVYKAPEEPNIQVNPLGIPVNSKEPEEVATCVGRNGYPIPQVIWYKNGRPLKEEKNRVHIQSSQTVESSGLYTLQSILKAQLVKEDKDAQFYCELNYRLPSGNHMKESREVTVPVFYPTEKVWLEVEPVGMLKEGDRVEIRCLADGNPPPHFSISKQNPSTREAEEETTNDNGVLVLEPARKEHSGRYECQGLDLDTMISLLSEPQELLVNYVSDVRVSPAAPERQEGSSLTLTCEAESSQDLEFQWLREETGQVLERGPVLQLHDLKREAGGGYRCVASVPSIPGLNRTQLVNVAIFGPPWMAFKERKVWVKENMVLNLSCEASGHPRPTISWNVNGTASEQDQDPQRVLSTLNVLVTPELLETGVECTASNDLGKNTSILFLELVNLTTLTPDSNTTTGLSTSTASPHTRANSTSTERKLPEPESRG
substance,measurement,value
"H13-112抗体 (AA98 variant, heavy chain I28K and light chain L51Y) (antibody)",fold increase of affinity against AA98,10 fold
